According to patent US20060057701A1 (RINAT NEUROSCIENCE, published 2006):
Each block holds one binder with its values, some of them ahead of it. Ends that are not written are not given here.

Key:
[1] = molecular target: T1, Aβ28-42 peptide (human); test: SPR competition: soluble peptide against immobilized Aβ1-40, Fab at 50 nM
T1 peptide: KGAIIGLMVGGVVIA
Experimental: (§1) To determine the epitope on Aβ polypeptide that is recognized by antibody 9TL, Surface Plasmon Resonance (SPR, Biacore 3000) binding analysis was used. Aβ₁₋₄₀ polypeptide coupled to biotin (Global Peptide Services, CO) was immobilized on a streptavidin-coated chip (SA chip). The binding of Aβ antibodies Fab fragments (at 50 nM) to the immobilized Aβ₁₋₄₀ in the absence or presence of different soluble fragments of the Aβ peptide (at 10 μM, from American Peptide Company Inc., CA). Amino acid sequences of Aβ₁₋₄₀, Aβ₁₋₄₂, and Aβ₁₋₄₃ are shown in below in Table 4. The Aβ peptides which displaced binding of antibody 9TL Fab fragment to Aβ₁₋₄₀ were Aβ₂₈₋₄₀, Aβ₁₋₄₀, Aβ₃₃₋₄₀, and Aβ₁₇₋₄₀, respectively (FIG. 2). Thus, antibody 9TL binds to a C-terminal peptide (33-40) of Aβ₁₋₄₀.

[2] = molecular target: T2, Aβ1-43 peptide (human); test: as above
T2 construct: also called 1-43 (WT)
T2 sequence (peptide, as listed by the source): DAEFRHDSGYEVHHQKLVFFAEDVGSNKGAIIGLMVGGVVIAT
Experimental: as §1

[3] = molecular target: T3, biotinylated Aβ 21-35 peptide with C-terminal glycine (human, also: biotinylated, position not given here); test: ELISA: biotinylated peptide on streptavidin plate, goat anti-human kappa HRP, absorbance at 450 nm
T3 peptide: AEDVGSNKGAIIGLMG

[4] = molecular target: T4, biotinylated Aβ 20-34 peptide with C-terminal glycine (human, also: biotinylated, position not given here); test: as above
T4 peptide: FAEDVGSNKGAIIGLG

[5] = molecular target: T5, biotinylated Aβ 24-38 peptide with C-terminal glycine (human, also: biotinylated, position not given here); test: as above
T5 peptide: VGSNKGAIIGLMVGGG

[6] = molecular target: T6, biotinylated Aβ 25-39 peptide with C-terminal glycine (human, also: biotinylated, position not given here); test: as above
T6 peptide: GSNKGAIIGLMVGGVG

[7] = molecular target: T7, biotinylated Aβ 23-37 peptide with C-terminal glycine (human, also: biotinylated, position not given here); test: as above
T7 peptide: DVGSNKGAIIGLMVGG

[8] = molecular target: T8, biotinylated Aβ 22-36 peptide with C-terminal glycine (human, also: biotinylated, position not given here); test: as above
T8 peptide: EDVGSNKGAIIGLMVG

[9] = molecular target: T9, human C1q (human, UniProt P02745 23-245; P02746 28-253; P02747 29-245); test: SPR, C1q on CM5 chip, antibody flowed
T9 construct: also called hC1q; human complement
T9 sequence (P02745 23-245 limits assumed, chain 1 of 3): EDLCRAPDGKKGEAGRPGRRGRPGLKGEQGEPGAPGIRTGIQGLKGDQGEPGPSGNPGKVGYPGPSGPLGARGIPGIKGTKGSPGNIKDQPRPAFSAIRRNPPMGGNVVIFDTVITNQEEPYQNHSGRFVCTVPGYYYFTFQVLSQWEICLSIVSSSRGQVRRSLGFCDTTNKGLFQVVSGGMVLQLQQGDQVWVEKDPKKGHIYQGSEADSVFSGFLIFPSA
T9 sequence (P02746 28-253 limits assumed, chain 2 of 3): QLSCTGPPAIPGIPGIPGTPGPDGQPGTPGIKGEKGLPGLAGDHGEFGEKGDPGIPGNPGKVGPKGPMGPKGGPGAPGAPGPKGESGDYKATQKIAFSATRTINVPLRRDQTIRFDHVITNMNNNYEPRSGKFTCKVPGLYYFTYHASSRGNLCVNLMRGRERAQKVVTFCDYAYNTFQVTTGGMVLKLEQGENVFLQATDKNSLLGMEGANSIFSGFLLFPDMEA
T9 sequence (P02747 29-245 limits assumed, chain 3 of 3): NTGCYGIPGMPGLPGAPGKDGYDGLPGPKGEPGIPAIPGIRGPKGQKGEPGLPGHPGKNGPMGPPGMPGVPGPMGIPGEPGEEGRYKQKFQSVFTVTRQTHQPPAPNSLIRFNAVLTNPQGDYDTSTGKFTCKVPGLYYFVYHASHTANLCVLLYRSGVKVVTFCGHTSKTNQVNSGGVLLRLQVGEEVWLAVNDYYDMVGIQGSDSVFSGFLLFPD
Experimental: (§2) Binding affinity of the antibody Fc regions to Fcγ receptors or complement were measured using BIAcore as described above. Briefly, purified human or murine Fcγ receptors (from R&D Systems) and human C1q (from Quidel) were immobilized on BIAcore CM5 chip by amine chemistry. Serial dilutions of monoclonal antibodies (ranging from 2 nM to the maximum concentration as indicated in Tables 16 and 17) were injected. HBS-EP (0.01M HEPES, pH 7.4, 0.15 M NaCl, 3 mM EDTA, 0.005% Surfactant P20) as running and sample buffer. Binding data were analyzed using 1:1 langmuir interaction model for high affinity interactions, or steady state affinity model for low affinity interactions.

[10] = molecular target: T10, murine FcγRIIb (murine, UniProt P08101 40-217, limits assumed); test: SPR, receptor on CM5 chip, antibody flowed
T10 construct: Bought; also called mFcγRIIb
T10 sequence (looked up): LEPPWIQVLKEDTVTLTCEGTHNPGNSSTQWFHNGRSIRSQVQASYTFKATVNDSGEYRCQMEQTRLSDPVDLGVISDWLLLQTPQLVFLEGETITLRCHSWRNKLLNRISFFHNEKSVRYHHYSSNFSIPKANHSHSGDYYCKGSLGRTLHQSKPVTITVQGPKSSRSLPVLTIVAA
Experimental: as §2

[11] = molecular target: T11, murine FcγRIII (murine, UniProt P08508 31-215, limits assumed); test: SPR, receptor on CM5 chip, antibody flowed
T11 construct: Bought; also called mFcγRIII
T11 sequence (looked up): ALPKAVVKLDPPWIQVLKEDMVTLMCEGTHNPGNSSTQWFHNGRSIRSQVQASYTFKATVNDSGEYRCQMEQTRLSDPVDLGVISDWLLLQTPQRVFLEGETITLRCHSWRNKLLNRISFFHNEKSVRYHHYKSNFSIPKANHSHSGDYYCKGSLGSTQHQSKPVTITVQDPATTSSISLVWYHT
Experimental: as §2

[12] = molecular target: T12, human FcγRIIb/c (human, UniProt P31994 46-217, limits assumed); test: SPR, receptor on CM5 chip, antibody flowed
T12 construct: Bought
T12 sequence (looked up): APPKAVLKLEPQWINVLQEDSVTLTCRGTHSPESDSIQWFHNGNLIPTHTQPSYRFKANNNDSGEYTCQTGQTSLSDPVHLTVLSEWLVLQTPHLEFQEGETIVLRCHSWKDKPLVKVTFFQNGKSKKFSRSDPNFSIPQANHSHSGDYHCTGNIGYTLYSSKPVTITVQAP
Experimental: as §2

[13] = molecular target: T13, human FcγRI (human, UniProt P12314 16-288, limits assumed); test: SPR, receptor on CM5 chip, antibody flowed
T13 construct: Bought
T13 sequence (P12314 16-288 limits assumed): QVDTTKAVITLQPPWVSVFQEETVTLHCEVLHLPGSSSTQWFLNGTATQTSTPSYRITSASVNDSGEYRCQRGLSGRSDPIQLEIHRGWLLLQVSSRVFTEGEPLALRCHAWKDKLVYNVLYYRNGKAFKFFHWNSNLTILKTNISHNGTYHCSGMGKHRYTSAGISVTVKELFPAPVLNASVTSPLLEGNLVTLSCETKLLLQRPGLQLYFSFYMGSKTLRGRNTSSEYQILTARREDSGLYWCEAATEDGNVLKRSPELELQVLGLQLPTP
Experimental: as §2

[14] = molecular target: T14, murine FcγRI (murine, UniProt P26151 25-297, limits assumed); test: SPR, receptor on CM5 chip, antibody flowed
T14 construct: Bought; also called mFcγRI
T14 sequence (looked up): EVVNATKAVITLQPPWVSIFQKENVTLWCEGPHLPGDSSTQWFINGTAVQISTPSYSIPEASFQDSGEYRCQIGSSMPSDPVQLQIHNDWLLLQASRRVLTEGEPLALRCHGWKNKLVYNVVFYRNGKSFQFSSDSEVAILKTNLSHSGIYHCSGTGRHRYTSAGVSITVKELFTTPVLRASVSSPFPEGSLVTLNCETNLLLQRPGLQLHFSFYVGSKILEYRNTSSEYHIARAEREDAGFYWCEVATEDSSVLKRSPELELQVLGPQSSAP
Experimental: as §2

- binding result [1]: no binding (tested: 10 µM peptide)
- binding result [2]: no binding (tested: 10 µM peptide)
B1: antibody 9TL Fab fragment (Fab, V domains shown)
VH: QVQLVQSGAEVKKPGASVKVSCKASGYYTEAYYIHWVRQAPGQGLEWMGRIDPATGNTKYAPRLQDRVTMTRDTSTSTVYMELSSLRSEDTAVYYCASLYSLPVYWGQGTTVTVSS
VL: DVVMTQSPLSLPVTLGQPASISCKSSQSLLYSDAKTYLNWFQQRPGQSPRRLIYQISRLDPGVPDRFSGSGSGTDFTLKISRVEAEDVGVYYCLQGTHYPVLFGQGTRLEIKR
notes: Fab expressed in E. coli

- absorbance at 450 nm [3]: > 3
- absorbance at 450 nm [4]: > 3
- absorbance at 450 nm [5]: 2.1
- absorbance at 450 nm [6]: 1.5
- absorbance at 450 nm [7]: 2.3
- absorbance at 450 nm [8]: > 3
B2: antibody 6G (antibody, human IgG2, kappa, V domains shown)
VH: QVQLVQSGAEVKKPGASVKVSCKASGYTFTTYAIHWVRQAPGQGLEWMGFTSPYSGVSNYNQKFKGRVTMTRDTSTSTVYMELSSLRSEDTAVYYCARFDNYDRGYVRDYWGQGTLVTVSS
VL: DIVMTQSPDSLAVSLGERATINCRASESVDNDRISFLNWYQQKPGQPPKLLIYAATKQGTGVPDRFSGSGSGTDFTLTISSLQAEDVAVYYCQQSKEFPWSFGGGTKVEIKR
notes: Full antibody with modified human IgG2a (A330P331 to S330S331) and human kappa

- binding result [9]: no binding (tested: 30,000 nM)
- binding result [10]: no binding (tested: 30,000 nM)
- binding result [11]: no binding (tested: 30,000 nM)
- Kd [12]: 61 µM
- binding result [13]: no binding (tested: 30 µM)
- binding result [14]: no binding (tested: 30,000 nM)
B3: antibody 9TL (antibody, human IgG2, kappa)
heavy: QVQLVQSGAEVKKPGASVKVSCKASGYYTEAYYIHWVRQAPGQGLEWMGRIDPATGNTKYAPRLQDRVTMTRDTSTSTVYMELSSLRSEDTAVYYCASLYSLPVYWGQGTTVTVSSASTKGPSVFPLAPCSRSTSESTAALGCLVKDYFPEPVTVSWNSGALTSGVHTFPAVLQSSGLYSLSSVVTVPSSNFGTQTYTCNVDHKPSNTKVDKTVERKCCVECPPCPAPPVAGPSVFLFPPKPKDTLMISRTPEVTCVVVDVSHEDPEVQFNWYVDGVEVHNAKTKPREEQFNSTFRVVSVLTVVHQDWLNGKEYKCKVSNKGLPSSIEKTISKTKGQPREPQVYTLPPSREEMTKNQVSLTCLVKGFYPSDIAVEWESNGQPENNYKTTPPMLDSDGSFFLYSKLTVDKSRWQQGNVFSCSVMHEALHNHYTQKSLSLSPGK
light: DVVMTQSPLSLPVTLGQPASISCKSSQSLLYSDAKTYLNWFQQRPGQSPRRLIYQISRLDPGVPDRFSGSGSGTDFTLKISRVEAEDVGVYYCLQGTHYPVLFGQGTRLEIKRTVAAPSVFIFPPSDEQLKSGTASVVCLLNNFYPREAKVQWKVDNALQSGNSQESVTEQDSKDSTYSLSSTLTLSKADYEKHKVYACEVTHQGLSSPVTKSFNRGEC
notes: Full antibody; human IgG2a constant region with A330P331 to S330S331, human kappa; transient expression in HEK 293 cells; also called 9TL mAb; 9TL(hIgG2Δa); copies: 2 + 2
